Reference: article PMC11078757, “Ligand efficacy modulates conformational dynamics of the µ-opioid receptor” (Nature, 2024)

Molecular target: T1, Gi1 heterotrimer (human Gαi1, Gβ1, Gγ2) (human, UniProt P63096 1-354; P62873 1-340; P59768 1-71)
T1 construct: Gαi1, human; Gβ1, human; Gγ2, cloned together with human Gβ1 in pFastBac Dual; Treated with λ protein phosphatase; Purified with 10 µM GDP; made nucleotide-free in the assay with apyrase where said; Residues of the 3C site may be left on Gβ1 after cleavage; also called G protein; source: Hi5 cells, baculovirus co-infection, purified (Ni-NTA, MonoQ; also SEC for DEER samples); not shown: His6, …
Experiment: single-molecule FRET within the labelled receptor (TIRFM); 20 nM µOR–Cy3/Cy5 with 100 µM ligand incubated with 20 µM Gi1, then apyrase (nucleotide-free); complex immobilised via Flag tag, biotinylated M1 Fab and streptavidin; 25 °C, LMNG/CHS micelles, 100 ms frames
Conditions: both partners purified

B1: µOR∆7(R182C/R273C) labelled with iodoacetamide-conjugated Cy3 and Cy5 (receptor)
chain: GPGNISDSSDPLAPASSSPAPGSWLNLSHVDGNQSDPSGPNRTGLGGSHSLSPQTGSPSMVTAITIMALYSIVCVVGLFGNFLVMYVIVRYTKMKTATNIYIFNLALADALATSTLPFQSVNYLMGTWPFGNILCKIVISIDYYNMFTSIFTLCTMSVDRYIAVTHPVKALDFRTPCNAKIVNVCNWILSSAIGLPVMFMATTKYRQGSIDCTLTFSHPTWYWENLLKICVFIFAFIMPVLIITVCYGLMILRLKSVRMLSGSKEKDCNLRRITRMVLVVVAVFIVCWTPIHIYVIIKALITIPETTFQTVSWHFCIALGYTNSCLNPVLYAFLDENFKRAFREFLIPTSSTIEQQNSARIRQNTREHPSTANTVDRTNHQLENLEAETAPLP
modifications: iodoacetamide-conjugated Cy3 and Cy5 on the introduced cysteines 182 and 273
notes: µ-opioid receptor, Mus musculus, residues 6-398, minimal-cysteine construct µOR∆7 with two introduced labelling cysteines; Tethered to the cover slip via its Flag tag, biotinylated M1 Fab and streptavidin; also called µOR–Cy3/Cy5; source: Sf9 insect cells, baculovirus, purified (Ni-NTA, anti-Flag M1 resin, SEC) in LMNG/CHS micelles; not shown: Flag, N-terminal, kept
binding result: binds
